Where no end group is shown, it is not given here. [ ]: non-standard residue; d: D form. Bip = N[C@@H](Cc1ccc(-c2ccccc2)cc1)C(=O)O
Molecular target: Full-length human glucagon-like peptide 1 receptor (human, UniProt P43220 24-463)
Experiment: cell-based or functional assay

Binder | cAMP production (EC50), cAMP cell-based assay in CHO-GLP-1R-19 cells
HAEGTFTSD-NH2 | > 1 millimolar
HAEGTFTSD[Bip][Bip]-NH2 (N-terminus assumed; SMILES C[C@H](NC(=O)[C@@H](N)Cc1c[nH]cn1)C(=O)N[C@@H](CCC(=O)O)C(=O)NCC(=O)N[C@H](C(=O)N[C@@H](Cc1ccccc1)C(=O)N[C@H](C(=O)N[C@@H](CO)C(=O)N[C@@H](CC(=O)O)C(=O)N[C@@H](Cc1ccc(-c2ccccc2)cc1)C(=O)N[C@@H](Cc1ccc(-c2ccccc2)cc1)C(N)=O)[C@@H](C)O)[C@@H](C)O) [GLP-1 11-mer peptide analog His-Ala-Glu-Gly-Thr-Phe-Thr-Ser-Asp-Bip-Bip-NH2] | 1.1 µM

From patent US20070287670A1 (Bristol-Myers Squibb, published 2007)
